Measured values published in the nanobody polyreactivity screen of Harvey et al. (2022).

Assay: yeast display, Sf9 membrane polyspecificity reagent, FACS + sequencing; frameworks hold sequencing errors
Method in brief: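 Sorting gates, low and high (top ~1%), were placed on anti-HA fluorescence to track expression and on streptavidin fluorescence to track reagent binding. A clone's polyreactivity label is taken from the gate it came out of. The reagent was 10% biotinylated, detergent-solubilized Sf9 membrane, applied for 1 hour at 4 °C to galactose-induced yeast display cells.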

Row | Sequence | polyreactivity (PSR sort gate)
1 | QVRLVESAGGIVQAGGSLRLSCAASGRTFSVHAMGWYTQAPGKERELVAAISWDGGSTYYGDSVKGRFTISRDNSKNTVYLQMNSLKPEDTAVYYCYKELYYAYDYWGLGTQVTVSS | low polyreactivity
2 | QVQLVESGGGLVQAGGSLRLSCPASGSIFDPYAMGWYRQAPGKERELVAAITASGSSTYYADSVKGRFTISRDNAKNTVYLQMNSLKPEDTAVYYCAADRAKWEYLLSWLGYDYWGQGTQVTVSS | low polyreactivity
3 | QVQLVESGGGLVQAGGSLRLSCAASGSIFRSYDMGMYRQAPGKERELVADITRTGGNTYYADSVKGRFTISRDNAKNTVYLQMNSLKPEDTAVYYCAATYILTVSVFSYVWPYDYWGQGTQVTVSS | high polyreactivity
4 | QVQLVESGGGLVQAGGSLRLSCAASGSIFTKYAMGWYRPAPGKERELVAAISYSGGTRTYYADSVKGRFTSSRDNAKNTVYLQMNSLKPEDTAVYYCAARRYTRRANPAYPYEYWGQGTQVTVSS | high polyreactivity
5 | QVQLVESGGGLVQAGGSLRLSCAASGSITGLNAMGWYRHAPGKERELVAAIYRSGGRTYNADSVKGRFTISRDNAKNTVYLQMISLKPEDTAVYYCAAVTTWRLDYWGQGTQVTVSS | high polyreactivity
6 | QFQLGESGGGLVQAGGSLRLSCAASGYIFKKNAMGWYRQAPGYERELVAVISARGGRTYYADSVKGRFTISRDKGKNTVYLQMNSLKPEDTAVYYCAAVSLGITYDYWGQGTQVTVSS | low polyreactivity
7 | QVQLVESAGGLVQAGGSLRLSCADSGRTFAYNVIGWYRQAPGKERELVAGISFGAGTTYYADSVKGRFTISRDNAKNTVYLQMNSLKPEDTAVYYCATRRRGTRYPRGYDYWGQGTQVTVSS | high polyreactivity
8 | QVQLVETGGGLVQAGGSLRLSCAASGLTIHPYAKGCYRQAPGKERELVAAISSRGTSTYYADSVKGRFTISRDNAKNTVYLQMNSLKPEDTAVYYCAARHGPRAEAMYYWGQGTQVTVSS | high polyreactivity
9 | QVQLVESGGGLVQAGGSLRLSCAASGSTFEVYAMGWYRQAPGKERELVAAINSRGTSTYYADSVKGRFTISRDNAKNTVYLQMNSLKPEDTAVYYCNAVRDWGPSQVYDGMDYWGQGTQVTVSS | low polyreactivity
10 | QVQLVESGGGLVQAGGSLRLSCAASGFTFPGYAMGGYRQAPGKERELVAAISSTDRTTYADSVKGRFTISRDNAKNTVYLQMNSLKPEDTAVYYCNTATRRRPRGYWGQGTQVTVSS | high polyreactivity
11 | QVQLVESGGGLVQAGDSLRLSCAASGLTFSAYVMGWYRQAPGKERELVAATSRRGGTTYYADSVKGRFTISRDNAKITVYLQMNSLKPEDTAVYYCGTDYTSGSSYHVGYCGQGTQVTVSS | high polyreactivity
12 | QVQLVDSGGGLVQAGGSLRLSCAASGFILSRYTMGWYRQAPGKERELVATISSGGRTYYADSVKGRFTISRDNAKNTVYLQMNSLKPEDTAVYYCAAAYTYWRISGNRYLYDYWGQGTQVTVSS | high polyreactivity
13 | QVQLVESGGGLVQAGGSLRLSCAASGLIFRPYAIGWYRQAPGKERELVAGITSGGNTDYADSVKGRFTISRDNAKNTVYLQMNSLKPEDTAVYYCADYFIYGYWGQGTQVTVSS | low polyreactivity
14 | QVQLVESWGGLVQAGCSLRLSCAPSGSIFRTNAMGWYREAPGKQRELLAAITGSGGSTNYADSVKGRFTISRDNAKNTVYLQMNSLKPEDTADYYCAAEFGSLLSPYNYYYWGQGTQVTVSS | low polyreactivity
15 | QVHLVESGGGIVQAGGSLRLSSAATGRTFPYNAMGWYRQAPGKERELVAAISSGGSTNYADSVKGRFTISRDNAKNTVYLQMNSLKPEDTAVYYCATKYQRRPYRYYYWGQGTQVTVSS | low polyreactivity
16 | QVQLVESGGGLVQAGGSLRLSCAASGSILARYAMGWYRQAPGKERQLVAAISYNGCSTYYADSVKGRFTISRDNAKNTVYLQMNSLKPEDTAVYYCAKAYDTTLTYNYWGQGTQVTVSS | low polyreactivity
17 | QVQLVESGGGLVQAGGSLRLSCAASGRTFYRNDMGWYRQAPGKERELVAAITSSGGTTYADSVKGRFTISRDNAKNTVYLQMNSLKPEDTAVYYCAAVYAYPNIYDYWGQGTQVNVSS | low polyreactivity
18 | QVQLVESGGGLVQAGGSLRLSCAASGRIFVVNAMGWYRQAPGKESELVAAITRRGGSTYADSVKGRFTISRDNAKNTLYIQMTSLKPEDTAVYYCNAESDFGIFRYKYDYWGQCTQVTVSS | high polyreactivity
19 | QVQLVESGGGLVQAGGSLRLSCAASGSIFYPYAMGWYRQAPGKERELVAAISYSGGITYYADSVKGRFTISRDNAKNTVYLQMNSLKPEDTAVYYCNKLIYFKPAGSHDYWGQGTQVTVSS | high polyreactivity
20 | QVQLVESGGGLVQAGGSLRLSCAASGRTLNDYAMEWYRQAPGKERELVAGITSGDSTYYADSVKGRFTISRDNAKNTVYLQMNSLIPEDTAVYYCAADSDTFYYTGYDYDYWGQGTQVTVSS | low polyreactivity
21 | QVQLVESGGGLVQAGGRLRLSCADSGRTYRKYAIGWYRQAPGKEMDMVAAISWSGGSTYYANSVKGRFTISRDNAKNTVYLQMNSLKPEDTAVYYCAAVPVHTGSLYWGFTTGYDYWGQGTQVTVSS | low polyreactivity
22 | QVQLVESGGGLVQAGGSLRLSCAASGITFTFYAMGWYRQAPGKERELVATIDSGGSTNYADSVKGRFTISRDNAKNTVYLQMNSLKPEDTEVYYCAADGVWYYYDMDYWGQGTQVTVSS | low polyreactivity

Row | Sequence | polyreactivity (PSR sort gate)
23 | QVQLVESGGGLVQAGGSLRLSCAASGRTYTGYGMGWSRQAPGKERELVAAITWRGDRTYYADSVKGRFTISRDNAKNTVYLQMNSLKPEDTAVYYCNKLGRIQYDYWGQGTQVTVSS | high polyreactivity
24 | QVQLVESGGGLVQAGGSLRLSCAASGITFWNYAMGWYRQAPGKERELVARISRGGSTNYADSVKGRFTISRDNAKNTVYLQMNSLKPEDNAVYYCAARWYSSTQTGNYWGQGTQVTVSS | high polyreactivity
25 | QVQLVESGGGLVQAGGSLRLSCAASGRTFTTYAMGWYRQAPRKERELVASISRRGGSTYYADSVKGRFTISRDNAKNTVYLQMNSLKPEDTAVYYCNAGGVRKYGYWGQGTQVTVSS | high polyreactivity
26 | QVQLVESGGGLVQAGVSLRLSCAASGSFFGYYTMGWYRQAPGTERELVAAISASGGSTYYADSVKGRFTISRDNANNTVYLQLNSLKPEDTAVYYCAATSAANFPRGYYYWGQGTQVTVSS | high polyreactivity
27 | QVQLVESGGGLVQAGGSLRLSCGASGFIFLKNAMGWYRQAPGKARELVAAITRSGDITYYADSVKGRFTISRDNAKNTVYLKMNSLKPEDTAVYYCATTREFPSYDSWGQGTQVTVSS | low polyreactivity
28 | QVQLVESGGGLVQAGGSLRLSCAASGSIFYFNPMGWYRPAPGKERELVAAISWSGRTYYADSVKGRFTISRDNAKKTVYLQMNSLKPEDTAVYYCNAAYHYYGKYDYWGQGTQVTVSS | high polyreactivity
29 | QVQLVESGGGLVQAGGSLRLSCAASGLIFLYYAMGWYRQAPGKERELVAAISSSGSTYYADSVKGRFTISRDNAKNTVYLQMNSLKPEDTAVYYCAAAGYLYPYRYYYWGQGTQVTVSS | high polyreactivity
30 | QVQLVESGGGLVQAGGSLRLSCAASGSTFAGNAMGWYRQAPGKERELVAAITSGTGTHYADSVKGRFSISRDNAKNTVYLQMNSLKPEDTAVYYCAAEVWSWAGIWGYEYWGQGTQVTVSS | low polyreactivity
31 | QVQLVESGGGLVQAGGSLRLSCAASGFNFDENAMGWYRQAPGKEREFYAAISISGSSTYADSVKGRFTISRDNAKNTVYLQMNCLKPEDTAVYFCAASYTTEYTGDGHSGVGDGDYWGQGTQVTVSS | low polyreactivity
32 | QVQLVESGGGVVQAGGTLLLICAASGSTFIVNAMVWYRQAPRKERELVAAITGSGGNTYYADSVKGRFTISRDNAKNTVYLQINTLKPEDTAVYYCAAETYYGRIYWYIRDYWGQGTQVSVSS | low polyreactivity
33 | QVQIVESGGGLVQAGGSLRLSCAASGSIFVQNAMGWYRQAPGKERELVAVINSGDSTNYADSVKGRFTISRDNAKNTVYLQMNSLKPEDTAVYYCAVDDVSYYYLRAYNYELSWYGSGLDYWGQGTQVTVSS | low polyreactivity
34 | QVQLVESGGGLVQAGGSLRLSCAASGSISTWYAMGWYRQAPGKERELVAAINSGDSTYYADSVKGRFTISRDNAKNTVYLQMNSLKPEDTAVYYCAASSYSSKPFDYWGQGTQVTVSS | high polyreactivity
35 | QVQLVESGGGLVQAGGSLRLSCAASGFTFGRNAIVWYRQAPGKERELVASIDWSGGSTYYADSVKGRFTISRDNAKNTVYLQMNSLKPEDTAVYYCAVGPNSVGNRSYGFDYWGQGTQVTVSS | low polyreactivity
36 | QVQLVESGGGLVQAGGSLRLSCAASGNILSVYTMGWYRQAPGKERELVATITYSGDRTYADSVKGRFTISRDNAKKTVYLQMNSLKPEDTAVYYCNAVYYREGMDYWGQGTQVTVSS | low polyreactivity
37 | QVQLVESGGGLVQAGGSLRLSCAASGSTFHYYAMGWYRQAPGKERELVAAINSGARTYYADSVKGRFTISRDNAKNTVYLQMNSLKTEDTAVYYCNKAFQWSGGQVSYDYWGQGTQVTVSS | low polyreactivity
38 | QFQLVESGGGLVQAGGSLRLSCAASGLIFAYNAKGWSRQATGKERELVAAITGGGDGTYYADSVKGRFTISRDNAKYTVYLQMNSLKPEDTAVYYCAADYKYVGSEYGYWGQGTQVTVSS | low polyreactivity
39 | QVQLVESGGGLVQAGGSLRLSCAASARIFSPYAMGWYRQAPGKERELVAAITSASSTYYADSVKGRFTISRDNAKNTLYLQMNSLKPEDTAVYYCAASYWRYGSAFDYWGQGTQVTVSS | high polyreactivity
40 | QDQLVESGGGLVQAGGSLRLSSAASGRIFKRYAMGWYIQAPGKERELVAAITYNSGSTYYADSVKGRFTISRDNAKNTVYLQMNSLKPEDTAVFYCAAEKWSDQSPRGDYWGQGTQVTVSS | low polyreactivity
41 | QVHLLDSGGGLVQEGGSLRLSCAASGSTIYVYAMGWYRQAPGKERELVAAITWDGDRTYYADSVKGRFTISRHNAKNTVYLHMTSLNPEDSAVYYCNRDIGGTSVLDDYWGQGTQVTVSS | low polyreactivity
42 | QVQLVESGGGLVQAGGSLRLSCAASGIIIDYNAMGWYRQAHGKERELVAAISSRGGSTYYADSVKGRFTISRDNAKNTVYLQMNSLKPEDTAVYYCAKVIGKYVNSYYWGQGTQVTVSS | low polyreactivity
43 | QVQLVESGGGLVQAGGSLRLSCAASGRIFAGYVMGWYRQAPGKERELVAAISGSGASTYYADSVKGRFTISRDNAKNTVFLQMNSLKPEDTAVYYCAADKPGIVSRFDYWGQGTQVTVSS | low polyreactivity
